The target of test [1] is T1, Her2 ECD (amino acids 1 to 629 of matured HER2 with C-terminal avi-tag and His-tag) (human, UniProt P04626 23-652).
T1 construct: also called purified Her2
Kind of test: SPR, Ab captured, Her2 analyte.

Test [2] has as its target T1, Her2 ECD (amino acids 1 to 629 of …). Kind of test: SPR; Pertuzumab heavy chain with the CLC. In general terms: Surface plasmon resonance follows binding to a sensor surface in real time, without labels.
The target is the same in test [3]. In words: SPR, antibody captured, Her2 analyte; N/A in Table 18.
Test [4] concerns the target T2, cynomolgus transferrin receptor (recombinant, for surface plasmon resonance) (cynomolgus).
T2 chain: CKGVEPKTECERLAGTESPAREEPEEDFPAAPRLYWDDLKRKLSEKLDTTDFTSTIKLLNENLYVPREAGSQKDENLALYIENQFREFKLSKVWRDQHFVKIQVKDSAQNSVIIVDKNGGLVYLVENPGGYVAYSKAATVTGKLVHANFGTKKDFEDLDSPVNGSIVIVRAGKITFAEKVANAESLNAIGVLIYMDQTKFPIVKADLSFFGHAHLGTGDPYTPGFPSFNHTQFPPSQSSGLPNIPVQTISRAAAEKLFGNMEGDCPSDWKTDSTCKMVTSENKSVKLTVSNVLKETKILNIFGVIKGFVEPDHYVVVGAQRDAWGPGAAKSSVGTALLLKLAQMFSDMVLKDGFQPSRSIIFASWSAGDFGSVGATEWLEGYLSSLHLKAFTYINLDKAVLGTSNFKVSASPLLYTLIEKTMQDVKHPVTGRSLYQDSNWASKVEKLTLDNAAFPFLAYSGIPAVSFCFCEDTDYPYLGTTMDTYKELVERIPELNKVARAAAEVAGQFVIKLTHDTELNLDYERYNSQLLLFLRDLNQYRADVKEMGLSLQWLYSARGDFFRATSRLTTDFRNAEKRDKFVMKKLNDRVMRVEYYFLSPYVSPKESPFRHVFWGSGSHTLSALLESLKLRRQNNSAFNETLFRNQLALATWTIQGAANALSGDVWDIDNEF
In words: BIAcore.

Test [5] concerns the target T3, human transferrin receptor (recombinant, for surface plasmon resonance) (human, UniProt P02786 89-760).
T3 construct: also called huTfR; human transferrin receptor-biotinylated
In words: BIAcore.

The target in test [6] is T4, human transferrin receptor on CHO-K1 cells (human, UniProt P02786 1-760).
T4 construct: whole, on cells; also called hTfR-CHO
In words: FACS, hTfR-CHO. (In general: Flow cytometry measures light scatter and fluorescence of single cells or particles in a stream.)

Test [7] addresses T5, cynomolgus transferrin receptor on CHO-K1 cells (cynomolgus, UniProt H9EXL1 1-760 (rhesus entry)).
T5 construct: whole, on cells; also called cyTfR; Cyno TfR-CHO
In words: FACS, cyTfR-CHO against hTfR-CHO.

Test [8] addresses T5, cynomolgus transferrin receptor on …. Kind of test: FACS, cyTfR-CHO.
Test [9] addresses T3, human transferrin receptor …. Kind of test: BIAcore, huTfR against cyTfR.

B1: Pertuzumab HC x Pertuzumab (Tras.L3)(QM) LC (antibody, V domains shown)
VH: EVQLVESGGGLVQPGGSLRLSCAASGFTFTDYTMDWVRQAPGKGLEWVADVNPNSGGSIYNQRFKGRFTLSVDRSKNTLYLQMNSLRAEDTAVYYCARNLGPSFYFDYWGQGTLVTVSS
VL: DIQMTQSPSSLSASVGDRVTITCKASQDVSTAVAWYQQKPGKAPKLLIYSASFRYTGVPSRFSGSRSGTDFTLTISSLQPEDFATYYCQQHYTTPPTFGQGTKVEIK
notes: also called Pertuzumab heavy chain with the common light chain (CLC)
As usually defined, the Kd is the constant that tells how readily two partners part at equilibrium. One may read the koff as a measure of how fast the partners let go of each other. One may read the kon as the rate constant with which the complex forms. Higher therefore signals fast association. In test [1], B1 yielded a Kd of 34.2 nM, a koff of 0.00324 s⁻¹ and a kon of 94600 M⁻¹ s⁻¹. In test [2], this molecule returned a Kd of 34 nM.

B2: Trastuzumab HC x Pertuzumab (Tras.Y91H) LC (antibody, V domains shown)
VH: not shown
VL: DIQMTQSPSSLSASVGDRVTITCKASQDVSIGVAWYQQKPGKAPKLLIYSASYRYTGVPSRFSGSGSGTDFTLTISSLQPEDFATYYCQQHYIYPYTFGQGTKVEIK
notes: human IgG
Consider B2, for which, in [3], the binding result is given as “no binding (tested: 300 nM)”.

B3: Rabbit anti-transferrin antibody clone 2/99 (antibody, V domains shown)
VH: QSMEESGGRLVTPGTPLTLTCTVSGFSLSSYAMSWVRQAPGKGLEWIGYIWSGGSTDYASWAKGRFTISKTSTTVDLKITSPTTEDTATYFCARRYGTSYPDYGDANGFDPWGPGTLVTVSS
VL: AYDMTQTPASVEVAVGGTVTIKCQASQSISSYLSWYQQKPGQRPKLLIYRASTLASGVSSRFKGSGSGTQFTLTISGVECADAATYYCQQCYSSSNVDNTFGGGTEVVVKR
notes: also called antibody 2/99
One may read the EC50 as the midpoint of the concentration-response curve. The low end stands for an effect from little substance, the high end for a need for much substance. As for B3, in test [4], the koff was determined as 0.000277 s⁻¹ and the t1/2 came out at 42 min. In addition, in test [5], the koff is 0.000616 s⁻¹ and the t1/2 was 19 min. This molecule returned an EC50 in [6] of 0.275 µg/mL. Further, in test [7], the “ratio EC50 Cyno/human” value stood at 0.9 and the “ratio max Cyno/human” value was 1. Further, in test [8], the EC50 is 0.241 µg/mL. Besides, in [9], the “ratio t1/2 human/Cyno” value amounted to 0.4.

For the origin of these results see patent US20180291110A1 (Hoffmann-La Roche, published 2018).
